Test results reported in IntAct's records for PubMed 19513100.

What was measured:
rb_mouse Rb1 = rb_mouse Rb1 (UniProt P13405)
fog1_human ZFPM1 = fog1_human ZFPM1 (UniProt Q8IX07)
Chain of fog1_human ZFPM1 (Q8IX07 whole entry): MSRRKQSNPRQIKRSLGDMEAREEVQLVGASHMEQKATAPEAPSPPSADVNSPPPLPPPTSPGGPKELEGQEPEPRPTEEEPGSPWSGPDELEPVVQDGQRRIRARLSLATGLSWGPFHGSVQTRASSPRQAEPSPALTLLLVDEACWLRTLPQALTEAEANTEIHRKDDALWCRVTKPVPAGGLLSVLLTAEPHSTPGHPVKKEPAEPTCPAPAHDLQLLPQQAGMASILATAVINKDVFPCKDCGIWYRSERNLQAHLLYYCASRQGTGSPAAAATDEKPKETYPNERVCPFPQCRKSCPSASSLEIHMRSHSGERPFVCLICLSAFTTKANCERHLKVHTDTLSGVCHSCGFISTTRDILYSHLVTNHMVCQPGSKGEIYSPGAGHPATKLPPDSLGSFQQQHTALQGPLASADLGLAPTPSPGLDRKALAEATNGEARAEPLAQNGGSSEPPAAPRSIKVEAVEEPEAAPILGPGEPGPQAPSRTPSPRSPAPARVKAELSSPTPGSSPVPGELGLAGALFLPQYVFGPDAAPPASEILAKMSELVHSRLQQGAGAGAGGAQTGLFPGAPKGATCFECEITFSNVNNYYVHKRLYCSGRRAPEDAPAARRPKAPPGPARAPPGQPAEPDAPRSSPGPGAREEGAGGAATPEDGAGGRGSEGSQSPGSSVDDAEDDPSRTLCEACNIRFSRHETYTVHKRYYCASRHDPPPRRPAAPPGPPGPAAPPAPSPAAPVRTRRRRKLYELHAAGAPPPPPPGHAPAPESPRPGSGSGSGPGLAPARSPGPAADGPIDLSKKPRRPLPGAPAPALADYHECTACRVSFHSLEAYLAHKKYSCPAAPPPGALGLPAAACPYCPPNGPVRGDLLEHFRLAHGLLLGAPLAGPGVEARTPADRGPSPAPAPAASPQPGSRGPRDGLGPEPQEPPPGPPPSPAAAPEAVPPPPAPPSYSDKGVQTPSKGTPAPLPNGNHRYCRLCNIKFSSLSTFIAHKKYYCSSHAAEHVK

Chain of Erythroid transcription factor (Homo sapiens), P15976 V205G (P15976 whole entry V205G): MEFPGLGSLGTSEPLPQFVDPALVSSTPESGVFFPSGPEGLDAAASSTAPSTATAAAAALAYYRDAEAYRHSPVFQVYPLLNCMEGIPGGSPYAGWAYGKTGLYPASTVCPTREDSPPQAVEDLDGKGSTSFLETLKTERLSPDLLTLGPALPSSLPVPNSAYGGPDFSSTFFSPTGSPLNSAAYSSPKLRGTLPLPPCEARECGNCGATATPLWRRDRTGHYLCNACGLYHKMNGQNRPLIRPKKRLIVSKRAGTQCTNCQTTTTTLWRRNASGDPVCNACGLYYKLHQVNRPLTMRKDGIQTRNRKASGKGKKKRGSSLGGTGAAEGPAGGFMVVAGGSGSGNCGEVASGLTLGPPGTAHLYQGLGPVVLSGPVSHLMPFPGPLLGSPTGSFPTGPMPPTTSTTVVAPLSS
Chain of Erythroid transcription factor (Homo sapiens), P15976 C83G;E85K (P15976 whole entry C83G/E85K): as the sequence (P15976 whole entry V205G) above, with C83G, E85K, G205V counted along it
Chain of rb_mouse Rb1 (P13405 whole entry): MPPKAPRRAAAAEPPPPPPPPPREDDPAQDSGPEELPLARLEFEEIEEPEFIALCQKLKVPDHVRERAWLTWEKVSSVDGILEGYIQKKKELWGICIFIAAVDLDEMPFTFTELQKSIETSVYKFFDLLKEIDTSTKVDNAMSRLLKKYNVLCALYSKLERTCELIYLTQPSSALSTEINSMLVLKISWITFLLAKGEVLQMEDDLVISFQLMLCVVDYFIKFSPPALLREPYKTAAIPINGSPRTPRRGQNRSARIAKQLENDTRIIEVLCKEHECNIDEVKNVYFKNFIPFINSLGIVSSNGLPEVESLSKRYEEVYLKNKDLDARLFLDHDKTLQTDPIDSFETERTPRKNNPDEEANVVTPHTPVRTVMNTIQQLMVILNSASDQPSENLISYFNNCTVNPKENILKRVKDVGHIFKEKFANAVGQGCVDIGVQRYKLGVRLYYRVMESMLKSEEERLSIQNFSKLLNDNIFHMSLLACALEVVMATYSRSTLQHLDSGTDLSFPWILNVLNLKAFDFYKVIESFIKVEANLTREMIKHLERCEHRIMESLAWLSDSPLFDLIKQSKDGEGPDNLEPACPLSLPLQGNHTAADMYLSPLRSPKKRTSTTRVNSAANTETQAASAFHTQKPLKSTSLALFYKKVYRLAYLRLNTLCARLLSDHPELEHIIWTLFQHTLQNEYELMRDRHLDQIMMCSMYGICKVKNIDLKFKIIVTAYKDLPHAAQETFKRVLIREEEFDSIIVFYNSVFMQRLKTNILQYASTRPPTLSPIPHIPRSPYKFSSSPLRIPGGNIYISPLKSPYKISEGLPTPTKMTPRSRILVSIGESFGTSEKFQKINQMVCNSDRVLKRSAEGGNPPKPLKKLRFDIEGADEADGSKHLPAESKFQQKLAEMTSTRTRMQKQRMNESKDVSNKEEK

Substance	effect of a mutation on the interaction (rb_mouse Rb1)	effect of a mutation on the interaction (fog1_human ZFPM1)
Erythroid transcription factor (Homo sapiens), P15976 C83G;E85K	disrupting interaction	
Erythroid transcription factor (Homo sapiens), P15976 V205G		disrupting interaction
